Experimental data as given in patent US20240299464A1, “BOTANICAL COMPOUNDS, METHODS, AND PROCEDURES FOR MEDICINAL TREATMENT RELATED TO IMMUNOINFLAMMATION, NEUROINFLAMMATION, DEPRESSION, MEMORY, FOCUS, AND NERVE DEGENERATION” (priority 2023, published 2024).
Marks after values point to notes of the source that are not given here.

Tests used:
mice = assay: Forced swimming test (FST), anti-anxiety and stress effects; assay type: in vivo
Method: The anti-anxiety and stress effects of the Ziptamin product were investigated in mice using the forced swim test as reported in Porsolt, et al. (5). Healthy female mice, after acclimatization, were randomly divided into 4 groups, each group consisting of 6 mice, specifically: • Group 1 (Disease control): Mice were administered distilled water; • Group 2 (Control): Mice were administered fluoxetine at a dose of 6.5 mg/kg; • Group 3 (Test sample): Mice were administered Ziptamin at a dose of 25 ml/kg, divided into 2 doses/day 4 hours apart; • Group 4 (Test sample): Mice were administered Ziptamin at a dose of 50 ml/kg, divided into 2 doses/day 4 hours apart.
Mice were administered distilled water or fluoxetine at a volume of 10 ml/kg once a day or Ziptamin at doses of 25 ml/kg and 50 ml/kg for 7 consecutive days, divided into 2 doses/day, with a 4-hour interval between doses. On day 7, 60 minutes after administering distilled water, fluoxetine, or Ziptamin, mice were placed in a cylindrical glass tube (diameter 20 cm, height 50 cm) containing water at a temperature of 23-25° C. and a depth of 20 cm for 6 minutes. Initially, the mice struggled to escape the water, but then gradually adapted and performed only the necessary movements to keep their heads above water (immobility state). Filming lasted for 6 minutes, including 1 minute for the mice to stabilize and adapt, and the remaining 5 minutes to record the movements and behavior of the mice in the water, including swimming time (mice moving their limbs in the water as if rowing in the center of the cylinder), struggling (front limbs moving quickly and strongly in or above the water, with a tendency to swim and hit the front limbs against the walls of the cylinder), and immobility (ceasing to struggle, only performing necessary movements to keep the head afloat) (FIG. 1). The test sample reduced anxiety and stress, decreasing immobility time and increasing swimming and struggling time in the test mice. After 6 minutes, the mice were removed from the water and dried to prevent hypothermia. Results are presented as mean values±SEM (standard error of the mean). Differences between groups were analyzed using the Kruskal-Wallis test and Mann-Whitney test with SPSS 26.0 software. A statistical significance is considered when the p-value is <0.05.

[1] = system: mice with immunosuppression induced by cyclophosphamide; assay: Immune stimulatory effects on mice with immunosuppression induced by cyclophosphamide; assay type: in vivo; settings: for Body weight: CYP 150 mg/kg i.p. day 1
Method: The adult human dosage of Ziptamin is 0.5-1 bottle/day×250 ml/bottle A normal adult weighs about 60 kg→Mouse dose of Ziptamin: Dmouse=(0.5*250*11.76)/60=25 ml/kg and Dmouse=(1*250*11.76)/60=50 ml/kg. The dose conversion factor from adults to mice is 11.76 according to the Guidelines for preclinical and clinical testing of traditional medicine, herbal medicine issued by the Department of Science, Technology and Training-Ministry of Health under Decision No. 141/QD-K2DT dated 27 Oct. 2015.
Healthy male mice, after stable housing, were randomly divided into 5 groups, each with 8 mice: • Group 1 (Physiological): Mice were given distilled water; • Group 2 (Disease control): Mice were given distilled water; • Group 3 (Control): Mice were injected […] with filgrastim at a dose of 50 μg/kg; • Group 4 (Test group): Mice were given Ziptamin at a dose of 25 ml/kg, divided into 2 doses/day 4 hours apart; • Group 5 (Test group): Mice were given Ziptamin at a dose of 50 ml/kg, divided into 2 doses/day 4 hours apart; • Group 1 (physiological) were injected intraperitoneally with 0.9% NaCl, volume 10 ml/kg. Mice from groups 2 to 5 were injected intraperitoneally with CYP (dissolved in 0.9% NaCl) at a single dose of 150 mg/kg on day 1, injection volume 10 ml/kg. Mice in group 3 were subcutaneously injected with filgrastim (dissolved in 5% glucose), dose 50 μg/kg, once a day, from day 2 to day 4, the first dose 24 hours after CYP injection. Mice in groups 4 and 5 were given Ziptamin at doses of 25 ml/kg and 50 ml/kg from day 1 to day 4, divided into 2 doses/day, 4 hours apart between doses. Mice in the test groups were recorded for weight daily before administering distilled water, test sample, or medication. On day 4, one hour after the filgrastim injection or Ziptamin administration, mice were euthanized with CO2 gas, blood was collected from the heart to determine the leukocyte formula at Medlatec clinic; spleen and thymus were collected, rinsed with cold 0.9% NaCl, dried, weighed, and the relative organ mass was determined using the formula:
[formula] • Where: • Porgan: organ weight (g) • Pbody: body weight (g)
Results are presented as mean±SEM (standard error of mean). Differences between groups were analyzed using Kruskal-Wallis and Mann-Whitney tests with SPSS 26.0 software. A difference was considered statistically significant when the p-value <0.05.

[2] = fluoxetine 6.5 mg/kg once a day, 7 days, female mice, n = 6, 5 minutes recorded
[3] = filgrastim 50 μg/kg day 2 to day 4, CYP 150 mg/kg, blood day 4, n = 8
[4] = filgrastim 50 μg/kg day 2 to day 4, CYP 150 mg/kg, day 4, n = 8

With `CNCCC(Oc1ccc(C(F)(F)F)cc1)c1ccccc1` (stereo not drawn) [Fluoxetin, fluoxetine] the “Time Immobility” value (mice; [2]) was 53.17 ± 29.27 s, the “Time Struggling” value (mice; [2]) was 15.33 ± 8.52 s and the “Time Swimming” value (mice; [2]) was 231.50 ± 28.25 s. For the same molecule, the “decrease in immobility time compared to the disease control group” value (mice; fluoxetine 6.5 mg/kg, p<0.01) was 68.66%, the “increase in swimming time compared to the disease control group” value (mice; fluoxetine 6.5 mg/kg, p<0.01) was 90.27% and the “paddling time relative to the disease control group” value (mice; fluoxetine 6.5 mg/kg, p>0.05) was 1.77 times.

B1: filgrastim (protein, UniProt P09919 31-207, looked up)
Granulocyte …: TPLGPASSLPQSFLLKCLEQVRKIQGDGAALQEKLVSECATYKLCHPEELVLLGHSLGIPWAPLSSCPSQALQLAGCLSQLHSGLFLYQGLLQALEGISPELGPTLDTLQLDVADFATTIWQQMEELGMAPALQPTQGAMPAFASAFQRRAGGVLVASHLQSFLEVSYRVLRHLAQP
modifications: filgrastim
B1 showed a Body weight ([1]; Day 1, filgrastim 50 μg/kg group, n = 8) of 19.34 ± 0.97 g, a Body weight ([1]; Day 2, filgrastim 50 μg/kg once a day from day 2, n = 8) of 18.19 ± 1.21 g and a Body weight ([1]; Day 3, filgrastim 50 μg/kg once a day from day 2, n = 8) of 17.64 ± 1.41 g. The Body weight ([1]; Day 4, filgrastim 50 μg/kg once a day from day 2, n = 8) was 17.08 ± 1.52 g, the “Ratio WBCC Lympho” value [1, 3] was 87.26 ± 4.57 % and the “Ratio WBCC Mono” value [1, 3] was 7.00 ± 1.91 %. For the same molecule, the “Ratio WBCC Neutral” value [1, 3] was 5.74 ± 2.84 %, the “Volume WBC Lympho” value [1, 3] was 2.26 ± 0.60**^# 10^9/L and the “Volume WBC Mono” value [1, 3] was 0.15 ± 0.10**^# 10^9/L. The “Volume WBC Neutral” value [1, 3] was 0.25 ± 0.13** 10^9/L, the “Volume WBC Total WBC” value [1, 3] was 2.66 ± 0.73**^# 10^9/L and the “Relative weight of the spleen” value [1, 4] was 0.16 ± 0.05 % g/g. The “Relative weight of the thymus” value [1, 4] was 0.06 ± 0.03 % g/g, the “total white blood cell count, lymphocyte count, monocyte count, proportion of neutrophils and lymphocytes compared to the disease control group” value ([1]; filgrastim 50 μg/kg subcutaneously, p<0.05) was “increase” and the “weight of the thymus compared to the disease control group” value ([1]; filgrastim 50 μg/kg, end of the experiment) was “remained unchanged”.
